Test results as given in PMC9482650, “Quantitative fragmentomics allow affinity mapping of interactomes” (Nature Communications, 2022).
One block for each binder: values may come before it.

Experiments:
Assay in all cases: holdup assay
Set-up in all cases: key: below the threshold = too weak to quantify, mostly under pKd 3.1 to 4
TJP3_3, O95049 = target: T1, TJP3_3, O95049
T1 sequence (O95049 375-456, limits assumed, looked up): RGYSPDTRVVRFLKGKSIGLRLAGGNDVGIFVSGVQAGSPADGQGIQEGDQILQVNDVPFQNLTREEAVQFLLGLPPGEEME

GRIP1_5, Q9Y3R0 = target: T2, GRIP1_5, Q9Y3R0
T2 sequence (Q9Y3R0 568-668, limits assumed, looked up): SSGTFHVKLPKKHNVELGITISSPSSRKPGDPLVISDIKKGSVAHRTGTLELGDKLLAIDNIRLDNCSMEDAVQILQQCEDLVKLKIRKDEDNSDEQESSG

SHANK1, Q9Y566 = target: T3, SHANK1, Q9Y566
T3 sequence (Q9Y566 658-767, limits assumed, looked up): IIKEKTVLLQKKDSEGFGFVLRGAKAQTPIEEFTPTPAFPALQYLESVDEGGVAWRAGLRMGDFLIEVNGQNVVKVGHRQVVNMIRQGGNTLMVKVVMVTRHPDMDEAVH

PARD3B_1, Q8TEW8 = target: T4, PARD3B_1, Q8TEW8
T4 sequence (Q8TEW8 196-299, limits assumed, looked up): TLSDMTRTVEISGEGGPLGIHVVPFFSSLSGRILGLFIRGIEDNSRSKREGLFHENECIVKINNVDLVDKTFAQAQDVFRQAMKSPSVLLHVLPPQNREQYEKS

AHNAK1, Q09666 = target: AHNAK1, Q09666
AHNAK1, Q09666, sequence (Q09666 4-100): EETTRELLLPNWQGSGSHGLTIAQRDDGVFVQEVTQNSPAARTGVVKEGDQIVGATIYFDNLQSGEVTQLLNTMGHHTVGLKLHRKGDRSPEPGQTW

Inadl_2, Q8NI35 = target: Inadl_2, Q8NI35
Inadl_2, Q8NI35, sequence (Q8NI35 238-335): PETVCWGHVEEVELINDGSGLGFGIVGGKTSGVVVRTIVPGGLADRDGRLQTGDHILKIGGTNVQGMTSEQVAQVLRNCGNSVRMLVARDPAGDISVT

DLG2_2, Q15700 = target: DLG2_2, Q15700
DLG2_2, Q15700, sequence (Q15700 189-283): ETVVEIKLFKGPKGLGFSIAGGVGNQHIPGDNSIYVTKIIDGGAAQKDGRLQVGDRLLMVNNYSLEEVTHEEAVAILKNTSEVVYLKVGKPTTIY

MAGI1_2, Q96QZ7 = target: MAGI1_2, Q96QZ7
MAGI1_2, Q96QZ7, sequence (Q96QZ7 456-580): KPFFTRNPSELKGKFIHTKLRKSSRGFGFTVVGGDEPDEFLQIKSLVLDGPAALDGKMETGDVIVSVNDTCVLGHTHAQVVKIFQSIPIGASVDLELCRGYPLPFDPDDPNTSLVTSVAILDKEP

NHERF2_2, Q15599 = target: NHERF2_2, Q15599
NHERF2_2, Q15599, sequence (Q15599 142-238): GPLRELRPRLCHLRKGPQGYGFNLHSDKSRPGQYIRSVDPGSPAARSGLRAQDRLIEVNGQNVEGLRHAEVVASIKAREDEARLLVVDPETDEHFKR

Inadl_9, Q8NI35 = target: Inadl_9, Q8NI35
Inadl_9, Q8NI35, sequence (Q8NI35 1530-1615): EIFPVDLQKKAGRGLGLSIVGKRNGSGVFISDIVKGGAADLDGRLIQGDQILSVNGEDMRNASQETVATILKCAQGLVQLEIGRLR

SYNJ2BP, P57105 = target: T5, SYNJ2BP, P57105
T5 sequence (P57105 8-110, limits assumed, looked up): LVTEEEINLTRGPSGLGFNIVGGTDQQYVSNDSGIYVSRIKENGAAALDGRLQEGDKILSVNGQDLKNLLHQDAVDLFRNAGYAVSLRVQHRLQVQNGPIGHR

LIN7A, O14910 = target: T6, LIN7A, O14910
T6 sequence (O14910 103-200, limits assumed, looked up): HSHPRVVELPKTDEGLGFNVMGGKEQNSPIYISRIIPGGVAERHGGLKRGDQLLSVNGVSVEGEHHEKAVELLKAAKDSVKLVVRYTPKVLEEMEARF

DLG1_1, Q12959 = target: DLG1_1, Q12959
MAGI2_5, Q86UL8 = target: MAGI2_5, Q86UL8
MAGI2_5, Q86UL8, sequence (Q86UL8 915-1017): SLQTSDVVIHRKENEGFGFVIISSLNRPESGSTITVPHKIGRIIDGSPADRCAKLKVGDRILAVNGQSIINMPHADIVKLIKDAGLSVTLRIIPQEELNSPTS

MAST1, Q9Y2H9 = target: MAST1, Q9Y2H9
MAST1, Q9Y2H9, sequence (Q9Y2H9 962-1065): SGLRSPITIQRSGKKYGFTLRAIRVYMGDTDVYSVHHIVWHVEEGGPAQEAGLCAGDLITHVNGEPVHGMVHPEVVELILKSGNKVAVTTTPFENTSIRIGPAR

DLG3_1, Q92796 = target: T7, DLG3_1, Q92796
T7 sequence (Q92796 125-227, limits assumed, looked up): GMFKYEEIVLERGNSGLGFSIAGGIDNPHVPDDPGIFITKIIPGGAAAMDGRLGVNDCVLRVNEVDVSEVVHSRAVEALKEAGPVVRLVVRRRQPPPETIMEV

DLG4_2, P78352 = target: DLG4_2, P78352
DLG4_2, P78352, sequence (P78352 155-259): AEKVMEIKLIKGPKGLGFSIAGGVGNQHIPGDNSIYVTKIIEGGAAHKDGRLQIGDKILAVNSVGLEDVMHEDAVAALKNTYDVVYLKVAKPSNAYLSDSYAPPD

MAGI1_1, Q96QZ7 = target: MAGI1_1, Q96QZ7
MAGI1_1, Q96QZ7, sequence (Q96QZ7 1-106): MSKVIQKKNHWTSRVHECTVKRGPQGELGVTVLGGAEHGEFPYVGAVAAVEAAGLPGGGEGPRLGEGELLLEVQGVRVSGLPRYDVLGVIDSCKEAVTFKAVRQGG

PTPN3, P26045 = target: PTPN3, P26045
PTPN3, P26045, sequence (P26045 505-587): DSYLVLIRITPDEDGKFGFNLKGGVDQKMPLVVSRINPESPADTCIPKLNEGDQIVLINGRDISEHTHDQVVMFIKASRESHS

GORASP1, Q9BQQ3 = target: GORASP1, Q9BQQ3
GORASP1, Q9BQQ3, sequence (Q9BQQ3 1-208): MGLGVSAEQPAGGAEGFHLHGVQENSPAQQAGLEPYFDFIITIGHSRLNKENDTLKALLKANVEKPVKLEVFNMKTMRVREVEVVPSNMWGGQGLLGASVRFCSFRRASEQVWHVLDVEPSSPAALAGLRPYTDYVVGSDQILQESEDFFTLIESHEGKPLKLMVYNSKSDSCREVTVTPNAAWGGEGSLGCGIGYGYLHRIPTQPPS

HTRA2, O43464 = target: HTRA2, O43464
HTRA2, O43464, sequence (O43464 355-458): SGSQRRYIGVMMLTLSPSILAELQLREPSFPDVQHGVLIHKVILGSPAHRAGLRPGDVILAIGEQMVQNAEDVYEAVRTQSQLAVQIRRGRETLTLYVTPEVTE

LIN7C, Q9NUP9 = target: T8, LIN7C, Q9NUP9
T8 sequence (Q9NUP9 88-185, limits assumed, looked up): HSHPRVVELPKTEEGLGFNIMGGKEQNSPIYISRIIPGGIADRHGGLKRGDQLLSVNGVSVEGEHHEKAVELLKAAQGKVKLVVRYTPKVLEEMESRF

APBA1_2, Q02410 = target: T9, APBA1_2, Q02410
T9 sequence (Q02410 742-832, limits assumed, looked up): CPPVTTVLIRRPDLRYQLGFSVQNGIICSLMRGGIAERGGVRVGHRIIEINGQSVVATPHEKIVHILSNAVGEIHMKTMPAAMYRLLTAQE

RADIL, Q96JH8 = target: T10, RADIL, Q96JH8
T10 sequence (Q96JH8 971-1071, limits assumed, looked up): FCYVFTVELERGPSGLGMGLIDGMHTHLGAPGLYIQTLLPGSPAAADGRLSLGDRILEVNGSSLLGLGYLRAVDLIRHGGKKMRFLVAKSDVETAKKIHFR

GRIP2_3, Q9C0E4 = target: GRIP2_3, Q9C0E4
GRIP2_3, Q9C0E4, sequence (Q9C0E4 238-339): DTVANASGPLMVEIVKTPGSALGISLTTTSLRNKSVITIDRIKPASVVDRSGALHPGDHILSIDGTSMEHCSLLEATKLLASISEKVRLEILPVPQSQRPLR

PARD3_3, Q8TEW0 = target: PARD3_3, Q8TEW0
PARD3_3, Q8TEW0, sequence (Q8TEW0 582-685): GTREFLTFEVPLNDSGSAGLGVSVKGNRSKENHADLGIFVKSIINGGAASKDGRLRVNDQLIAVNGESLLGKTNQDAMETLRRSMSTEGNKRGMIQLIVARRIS

Inadl_1, Q8NI35 = target: Inadl_1, Q8NI35
Inadl_1, Q8NI35, sequence (Q8NI35 113-229): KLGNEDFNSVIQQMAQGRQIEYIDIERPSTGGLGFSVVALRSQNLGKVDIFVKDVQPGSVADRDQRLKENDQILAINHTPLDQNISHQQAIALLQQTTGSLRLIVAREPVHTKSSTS

[1] = plain residues with an end cap or a label only (N-terminal biotin on a linker: ado-ado)
[2] = plain residues with an end cap or a label only (N-terminal biotin on a linker: ahx)

Binder: SVTSERETNI [SLC16A7, O60669]
pKd (TJP3_3, O95049; [1]): below the threshold
pKd (GRIP1_5, Q9Y3R0; [1]): below the threshold
pKd (SHANK1, Q9Y566; [1]): below the threshold
pKd (PARD3B_1, Q8TEW8; [1]): below the threshold
pKd (AHNAK1, Q09666; [1]): below the threshold
pKd (Inadl_2, Q8NI35; [1]): below the threshold
pKd (DLG2_2, Q15700; [1]): 3.95
pKd (MAGI1_2, Q96QZ7; [1]): below the threshold
pKd (NHERF2_2, Q15599; [1]): below the threshold
pKd (Inadl_9, Q8NI35; [1]): below the threshold
pKd (SYNJ2BP, P57105; [1]): 3.63
pKd (LIN7A, O14910; [1]): below the threshold
pKd (DLG1_1, Q12959; [1]): 3.58
pKd (MAGI2_5, Q86UL8; [1]): below the threshold
pKd (MAST1, Q9Y2H9; [1]): 4.14
pKd (DLG3_1, Q92796; [1]): below the threshold
pKd (DLG4_2, P78352; [1]): 4.11
pKd (MAGI1_1, Q96QZ7; [1]): below the threshold
pKd (PTPN3, P26045; [1]): 4.97
pKd (GORASP1, Q9BQQ3; [1]): below the threshold
pKd (HTRA2, O43464; [1]): below the threshold
pKd (LIN7C, Q9NUP9; [1]): 4.11
pKd (APBA1_2, Q02410; [1]): below the threshold
pKd (RADIL, Q96JH8; [1]): below the threshold
pKd (GRIP2_3, Q9C0E4; [1]): below the threshold
pKd (PARD3_3, Q8TEW0; [1]): below the threshold
pKd (Inadl_1, Q8NI35; [1]): below the threshold

Binder: LPAVCYDIDI [PTTG2, Q9NZH5]
pKd (TJP3_3, O95049; [1]): below the threshold
pKd (GRIP1_5, Q9Y3R0; [1]): below the threshold
pKd (SHANK1, Q9Y566; [1]): below the threshold
pKd (PARD3B_1, Q8TEW8; [1]): below the threshold
pKd (AHNAK1, Q09666; [1]): below the threshold
pKd (Inadl_2, Q8NI35; [1]): below the threshold
pKd (DLG2_2, Q15700; [1]): below the threshold
pKd (MAGI1_2, Q96QZ7; [1]): below the threshold
pKd (NHERF2_2, Q15599; [1]): below the threshold
pKd (Inadl_9, Q8NI35; [1]): below the threshold
pKd (SYNJ2BP, P57105; [1]): below the threshold
pKd (LIN7A, O14910; [1]): below the threshold
pKd (DLG1_1, Q12959; [1]): below the threshold
pKd (MAGI2_5, Q86UL8; [1]): below the threshold
pKd (MAST1, Q9Y2H9; [1]): 4.08
pKd (DLG3_1, Q92796; [1]): below the threshold
pKd (DLG4_2, P78352; [1]): below the threshold
pKd (MAGI1_1, Q96QZ7; [1]): below the threshold
pKd (PTPN3, P26045; [1]): 4.22
pKd (GORASP1, Q9BQQ3; [1]): 3.89
pKd (HTRA2, O43464; [1]): below the threshold
pKd (LIN7C, Q9NUP9; [1]): 4.01
pKd (APBA1_2, Q02410; [1]): below the threshold
pKd (RADIL, Q96JH8; [1]): below the threshold
pKd (GRIP2_3, Q9C0E4; [1]): below the threshold
pKd (PARD3_3, Q8TEW0; [1]): 4.29
pKd (Inadl_1, Q8NI35; [1]): below the threshold

Binder: QNTDDVQTSF [ACE2, Q9BYF1]
pKd (TJP3_3, O95049; [2]): below the threshold
pKd (GRIP1_5, Q9Y3R0; [2]): below the threshold
pKd (SHANK1, Q9Y566; [2]): 4.75
pKd (PARD3B_1, Q8TEW8; [2]): 3.82
pKd (AHNAK1, Q09666; [2]): below the threshold
pKd (Inadl_2, Q8NI35; [2]): below the threshold
pKd (DLG2_2, Q15700; [2]): below the threshold
pKd (MAGI1_2, Q96QZ7; [2]): below the threshold
pKd (NHERF2_2, Q15599; [2]): 4.29
pKd (Inadl_9, Q8NI35; [2]): below the threshold
pKd (SYNJ2BP, P57105; [2]): below the threshold
pKd (LIN7A, O14910; [2]): below the threshold
pKd (DLG1_1, Q12959; [2]): below the threshold
pKd (MAGI2_5, Q86UL8; [2]): 4.21
pKd (MAST1, Q9Y2H9; [2]): 4.6
pKd (DLG3_1, Q92796; [2]): below the threshold
pKd (DLG4_2, P78352; [2]): below the threshold
pKd (MAGI1_1, Q96QZ7; [2]): below the threshold
pKd (PTPN3, P26045; [2]): 4.45
pKd (GORASP1, Q9BQQ3; [2]): below the threshold
pKd (HTRA2, O43464; [2]): below the threshold
pKd (LIN7C, Q9NUP9; [2]): below the threshold
pKd (APBA1_2, Q02410; [2]): below the threshold
pKd (RADIL, Q96JH8; [2]): below the threshold
pKd (GRIP2_3, Q9C0E4; [2]): below the threshold
pKd (PARD3_3, Q8TEW0; [2]): below the threshold
pKd (Inadl_1, Q8NI35; [2]): below the threshold

Second part, the binder after the results:

pKd (TJP3_3, O95049; [1]): below the threshold
pKd (GRIP1_5, Q9Y3R0; [1]): below the threshold
pKd (SHANK1, Q9Y566; [1]): below the threshold
pKd (PARD3B_1, Q8TEW8; [1]): 3.63
pKd (AHNAK1, Q09666; [1]): below the threshold
pKd (Inadl_2, Q8NI35; [1]): below the threshold
pKd (DLG2_2, Q15700; [1]): below the threshold
pKd (MAGI1_2, Q96QZ7; [1]): below the threshold
pKd (NHERF2_2, Q15599; [1]): 3.91
pKd (Inadl_9, Q8NI35; [1]): below the threshold
pKd (SYNJ2BP, P57105; [1]): below the threshold
pKd (LIN7A, O14910; [1]): below the threshold
pKd (DLG1_1, Q12959; [1]): below the threshold
pKd (MAGI2_5, Q86UL8; [1]): below the threshold
pKd (MAST1, Q9Y2H9; [1]): 4.1
pKd (DLG3_1, Q92796; [1]): below the threshold
pKd (DLG4_2, P78352; [1]): below the threshold
pKd (MAGI1_1, Q96QZ7; [1]): below the threshold
pKd (PTPN3, P26045; [1]): 4.06
pKd (GORASP1, Q9BQQ3; [1]): below the threshold
pKd (HTRA2, O43464; [1]): below the threshold
pKd (LIN7C, Q9NUP9; [1]): 4.02
pKd (APBA1_2, Q02410; [1]): 4.34
pKd (RADIL, Q96JH8; [1]): below the threshold
pKd (GRIP2_3, Q9C0E4; [1]): below the threshold
pKd (PARD3_3, Q8TEW0; [1]): below the threshold
pKd (Inadl_1, Q8NI35; [1]): below the threshold
Binder: GEDRSPPTAL [MKNK1, Q9BUB5]

pKd (TJP3_3, O95049; [1]): below the threshold
pKd (GRIP1_5, Q9Y3R0; [1]): below the threshold
pKd (SHANK1, Q9Y566; [1]): 4.71
pKd (PARD3B_1, Q8TEW8; [1]): 4.47
pKd (AHNAK1, Q09666; [1]): below the threshold
pKd (Inadl_2, Q8NI35; [1]): below the threshold
pKd (DLG2_2, Q15700; [1]): below the threshold
pKd (MAGI1_2, Q96QZ7; [1]): 4.85
pKd (NHERF2_2, Q15599; [1]): 3.61
pKd (Inadl_9, Q8NI35; [1]): below the threshold
pKd (SYNJ2BP, P57105; [1]): below the threshold
pKd (LIN7A, O14910; [1]): below the threshold
pKd (DLG1_1, Q12959; [1]): below the threshold
pKd (MAGI2_5, Q86UL8; [1]): 4.59
pKd (MAST1, Q9Y2H9; [1]): 4.41
pKd (DLG3_1, Q92796; [1]): below the threshold
pKd (DLG4_2, P78352; [1]): 3.81
pKd (MAGI1_1, Q96QZ7; [1]): below the threshold
pKd (PTPN3, P26045; [1]): 3.8
pKd (GORASP1, Q9BQQ3; [1]): 4.06
pKd (HTRA2, O43464; [1]): below the threshold
pKd (LIN7C, Q9NUP9; [1]): below the threshold
pKd (APBA1_2, Q02410; [1]): 3.52
pKd (RADIL, Q96JH8; [1]): 3.66
pKd (GRIP2_3, Q9C0E4; [1]): below the threshold
pKd (PARD3_3, Q8TEW0; [1]): below the threshold
pKd (Inadl_1, Q8NI35; [1]): below the threshold
Binder: KKMLQRRTLL [OR8G1, Q15617]
